Results as given in the supplement of paper PMC9112550, “Optimization of the antimicrobial peptide Bac7 by deep mutational scanning” (BMC Biology, 2022).

Tested on: Escherichia coli TOP10
Assay: shrunken log2 fold change of peptide-encoding DNA abundance (4.5 h post-induction vs induction); higher = less antimicrobial activity (less host growth inhibition)
Settings: time post-induction: 4.5 h; library: site-saturation at positions 5, 18, 19, 20
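Note: peptides expressed intracellularly from a pBAD plasmid library in pooled LB shake-flask culture, induced with 0.3% L-arabinose, DNA abundance read by NGS, three biological replicates, DESeq2 with apeglm shrinkage.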

| Sequence | shrunken log2 fold change |
| --- | --- |
| RRIRCRPPRLPRPRPRPISEPRP | -0.0601 |
| RRIRQRPPRLPRPRPRPMVHPRP | -0.0226 |
| RRIRYRPPRLPRPRPRPTNTPRP | -1.15 |
| RRIRVRPPRLPRPRPRPQYLPRP | -0.12 |
| RRIRQRPPRLPRPRPRPGPLPRP | -0.035 |
| RRIRMRPPRLPRPRPRPHDWPRP | 1.45 |
| RRIRGRPPRLPRPRPRPWYTPRP | -0.225 |
| RRIRTRPPRLPRPRPRPNQAPRP | 0.00454 |
| RRIRMRPPRLPRPRPRPFWRPRP | 0.463 |
| RRIRYRPPRLPRPRPRPPRYPRP | -0.226 |
| RRIRWRPPRLPRPRPRPMWNPRP | -0.0699 |
| RRIRWRPPRLPRPRPRPGRYPRP | -0.137 |
| RRIRRRPPRLPRPRPRPVPYPRP | -0.195 |
| RRIRQRPPRLPRPRPRPFNTPRP | -0.29 |
| RRIRPRPPRLPRPRPRPCRPPRP | -0.168 |
| RRIRKRPPRLPRPRPRPNGQPRP | 0.203 |
| RRIRNRPPRLPRPRPRPGQDPRP | -0.0269 |
| RRIRDRPPRLPRPRPRPCVCPRP | -0.0348 |
| RRIRLRPPRLPRPRPRPHPWPRP | -0.0939 |
| RRIRPRPPRLPRPRPRPPHIPRP | 0.806 |
| RRIRRRPPRLPRPRPRPQNQPRP | 0.0537 |
| RRIRLRPPRLPRPRPRPRTKPRP | 0.567 |
| RRIRFRPPRLPRPRPRPHMEPRP | -0.405 |

| Sequence | shrunken log2 fold change |
| --- | --- |
| RRIRARPPRLPRPRPRPFDCPRP | -0.0326 |
| RRIRKRPPRLPRPRPRPGDDPRP | 0.758 |
| RRIRYRPPRLPRPRPRPRYQPRP | -0.0935 |
| RRIRARPPRLPRPRPRPGHIPRP | 0.0195 |
| RRIRSRPPRLPRPRPRPMEAPRP | -0.00776 |
| RRIRLRPPRLPRPRPRPQYVPRP | 0.0564 |
| RRIRFRPPRLPRPRPRPEYWPRP | -0.245 |
| RRIRDRPPRLPRPRPRPPKMPRP | 0.166 |
| RRIRSRPPRLPRPRPRPGPGPRP | 0.599 |
| RRIRRRPPRLPRPRPRPFDYPRP | -0.0528 |
| RRIRCRPPRLPRPRPRPVDMPRP | -0.247 |
| RRIRFRPPRLPRPRPRPSWLPRP | 0.156 |
| RRIRFRPPRLPRPRPRPVQQPRP | 0.355 |
| RRIRIRPPRLPRPRPRPANFPRP | -0.554 |
| RRIRKRPPRLPRPRPRPTGQPRP | 0.84 |
| RRIRMRPPRLPRPRPRPVDVPRP | -0.163 |
| RRIRQRPPRLPRPRPRPVKAPRP | 0.198 |
| RRIRPRPPRLPRPRPRPYRGPRP | 0.153 |
| RRIRHRPPRLPRPRPRPPYNPRP | -0.642 |
| RRIRNRPPRLPRPRPRPVELPRP | -0.0081 |
| RRIRNRPPRLPRPRPRPGEHPRP | 0.00902 |
| RRIRTRPPRLPRPRPRPQARPRP | -0.0339 |
| RRIRCRPPRLPRPRPRPKSMPRP | -0.541 |

| Sequence | shrunken log2 fold change |
| --- | --- |
| RRIRSRPPRLPRPRPRPKDIPRP | -0.828 |
| RRIRQRPPRLPRPRPRPPPAPRP | 0.804 |
| RRIRVRPPRLPRPRPRPTKAPRP | -0.142 |
| RRIRYRPPRLPRPRPRPNQSPRP | -0.268 |
| RRIRERPPRLPRPRPRPSPMPRP | -0.0654 |
| RRIRCRPPRLPRPRPRPGHNPRP | -0.385 |
| RRIRERPPRLPRPRPRPYHQPRP | -0.416 |
| RRIRLRPPRLPRPRPRPWSNPRP | -0.195 |
| RRIRFRPPRLPRPRPRPFNRPRP | 0.0118 |
| RRIRARPPRLPRPRPRPCRFPRP | 0.0212 |
| RRIRVRPPRLPRPRPRPLPTPRP | 0.184 |
| RRIRTRPPRLPRPRPRPKHMPRP | -0.081 |
| RRIRTRPPRLPRPRPRPGQAPRP | -0.228 |
| RRIRCRPPRLPRPRPRPCNHPRP | -0.227 |
| RRIRWRPPRLPRPRPRPSWVPRP | 0.0566 |
| RRIRVRPPRLPRPRPRPSVDPRP | -0.193 |
| RRIRWRPPRLPRPRPRPMQVPRP | -0.0191 |
| RRIRARPPRLPRPRPRPQVPPRP | 0.117 |
| RRIRCRPPRLPRPRPRPCDFPRP | -0.0328 |
| RRIRSRPPRLPRPRPRPTQPPRP | 0.215 |
| RRIRSRPPRLPRPRPRPMLGPRP | 0.106 |
| RRIRSRPPRLPRPRPRPEPHPRP | 0.0658 |
| RRIRARPPRLPRPRPRPKCIPRP | 0.0328 |

| Sequence | shrunken log2 fold change |
| --- | --- |
| RRIRARPPRLPRPRPRPLPMPRP | 0.306 |
| RRIRRRPPRLPRPRPRPYQFPRP | 0.0273 |
| RRIRGRPPRLPRPRPRPPWRPRP | 1.07 |
| RRIRYRPPRLPRPRPRPCVWPRP | -0.0563 |
| RRIRERPPRLPRPRPRPWNLPRP | -0.00195 |
| RRIRIRPPRLPRPRPRPLEEPRP | 0.073 |
| RRIRVRPPRLPRPRPRPSFNPRP | -0.411 |
| RRIRFRPPRLPRPRPRPGYMPRP | -0.922 |
| RRIRPRPPRLPRPRPRPPHDPRP | 0.572 |
| RRIRRRPPRLPRPRPRPIQLPRP | -0.407 |
| RRIRVRPPRLPRPRPRPVVIPRP | -0.401 |
| RRIRMRPPRLPRPRPRPKQNPRP | 1.16 |
| RRIRNRPPRLPRPRPRPFIIPRP | -0.41 |
| RRIRQRPPRLPRPRPRPTMAPRP | 0.216 |
| RRIRSRPPRLPRPRPRPDDIPRP | -0.00173 |
| RRIRDRPPRLPRPRPRPSGLPRP | 0.284 |
| RRIRWRPPRLPRPRPRPEAAPRP | 1.76 |
| RRIRWRPPRLPRPRPRPDANPRP | 0.0696 |
| RRIRERPPRLPRPRPRPWEWPRP | 0.0992 |
| RRIRQRPPRLPRPRPRPPAKPRP | 0.358 |
| RRIRQRPPRLPRPRPRPRNMPRP | -0.211 |
| RRIRPRPPRLPRPRPRPDKTPRP | 0.015 |
